Laboratory results as given in the nanobody polyreactivity screen of Harvey et al. (2022).

Test: yeast display, Sf9 membrane polyspecificity reagent, FACS + sequencing; frameworks hold sequencing errors
Summary of the method: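 In a synthetic yeast display library (Saccharomyces cerevisiae BJ5465), nanobody expression was induced with galactose for 36–48 hours. FACS gates were set low and high (top ~1%) using anti-HA fluorescence for expression and streptavidin fluorescence for binding of the Sf9 membrane reagent. Each polyreactivity label is drawn from the gate of origin.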

Row | Sequence | polyreactivity (PSR sort gate)
1 | QVQLVESGGGLVQAGGSLRLSCAASGRTFSTYAMGWYRQAPGKERELVARITSSGGSTYYAHSVKGRFTISRDIAKNSVYLQMNCLKPEDTAVYYCAAYAHYAQRYYYWGQGTQVTVSS | high polyreactivity
2 | QVQLVESGGGLVQAGGSLRLSCAASVRTMRTYTMGWYRQAPGIERELVAAISSSDDSTYYADSVKGRFTISRDNEKNTVYLQMNSLKPEDTAVYYCAKDGLYPTEYGYWGQGTQVTVSS | high polyreactivity
3 | QVQLVESGGGLVQAGGSLRLSCAASGLIFYRNAMGWYRQAPGKERELVAAISKNGGNTYYADSVKGRFTISRDNAKNTVYLQMYSLKPEDTAVYYCAARELYGPFGYWGQGTQVTVSS | high polyreactivity
4 | QVQLVESGGGLVQAGGSLRLSCAASGITFWEYAMGWYRQAPWKERELVAAISRSGGSTYYADSVKGRFTISRDNAKNTVYLQMNSLKPEDTAVYYCADETRRPIYDYWGQGTQVTVSS | high polyreactivity
5 | QVQLVESGGGLVQAGGSLRLSCAASGGIFSQYAMGWYRQAPGKERELVAAINSGVGTNYADSVKGRFTISRDNAKNTVFLQMNSLKPEDTAVYYCAATDDRLWTFDVASYRNDYWGQGTQVTVSS | low polyreactivity
6 | QVQLQESGVCLVQAGGSPRLSCAASDNIFPDSVMCWYRQAPGKERELVATIGFGATTNYADSVKGRFTISRDNAKNTVYLQMNSLKPEDTAVYYCAADPLNYEYFCYWGQGTQVTVSS | low polyreactivity
7 | QVQLGESGGGLVQAGGSLRLSCAASGSTFNLYAMGWYRQAPGKERELVAAISFSGGSTYYADSVKGRFTISRDNAKNTVYLQMNSLKPEDTAVYYCAAVESSYEAWDTYYYWGQGTQVTVSS | low polyreactivity
8 | QVQLQESGGGLVQAGGSLRLSCAASGNIFLGGDKGWYRQAPGKEREFVAAISDGTSTNYADSVKGRFTISRDNAKNTVYLQMNSLKPEDTAVYYCAAQYRYQRYSYAMEYWGQGTQVTVSS | high polyreactivity
9 | QVQLVESGGGLVQAGGSLRLSCAASGRTFAGNAMGWYRQAPGKERELVAAISWSGGRTYYADSVKGRFTISRDNAKNTVYLQMNSLKPEETAVYYCAAVRASSRFRYGYWGQGTQVTVSS | high polyreactivity
10 | QVHVVESWGGLVQAGGSLSLSCAASGLIIWMYTMGWYRQAPWKERELVAAIDWSGGSTYYADSVKGRFTISRDNAKNTVYLQMNSLKPEDTAVYYCAADPEPSYRFDYWGQGTQVTVSS | low polyreactivity
11 | QVQLVESGGGLVQAGGSLRLSCAASGFIFYYDAMGWYIQAPGKERELVARIYSGRSTYYADSVKGRFTISRDNAKNTVYLQMNSLKPEDTAVYYCNATRLVWFSQGYDYWGQGTQVTVSS | high polyreactivity
12 | QEQLQESGGGLVQAGGDLRLSCAESGNIFRDYIMGWYRQAPGKEREFVAGIDRGANTNYADSVKGRFTISRDNAKNTVYLQMNSLKPEDTAVYYCAVHTAIVPDFIYWGQGTQVTVSS | low polyreactivity
13 | QVQLVESGGGLVQAGGSLRLSCAASGSTRRYFKGWYRQAPGKERELVAVISRGGSTYYADSVKGRFTISGDNAKNTVYLQMNSLKPEDTAVYYCNVQPVIPRGGDYWGQGTQVTVSS | high polyreactivity
14 | QVQLVESGGGLVQAGGSLRLSCAASGSTIYRYAMGWYRQAPGKERELVATISRTGARTNYADSVKGRFTISRDNAKNTVYLQMNSLKPEDTAVYYCAASAPYIYYWGQGTQVTVSS | high polyreactivity
15 | QVQLVESGGGLVQAGGSLRLSCAASGITFYRKAMGRYRQAPGKERELVAAISRRGGITRYADSVKGRFTISRDNAKNTVYLQMNSLKPEDTAVYYCATVRYRWYSFQAERYYWGQGTQVTVSS | high polyreactivity
16 | QVQLVESGGGLVQAGGSLRLSCAASGFTFSQYAMGWYRQAPGKERELVAAINSRGGSTYYADSVKGRFTISRDNAKNTVYLQMNSLKPEDTAVYYCNAVISGYPYEYDYWGQGTQVTVSS | high polyreactivity
17 | QVQLVESGGGLVQAGGSLRLSCAASGNTFRYNAMGWYRQAPWKERELVAAISRRGGSTYYADSVKGRFTISRDNAKNTVYLQMNSLKPEDTAVYYCNAGRTAENEYWGQGTQVTVSS | high polyreactivity
18 | QVQLVESGGGLVHAGGSLRLSCAASGSTYYGNAMGWYIQAPRKERELVAAINRGGSTYYADSVKGRFTISRDNAKNTVYLQMKSLKPEDTAVYYCAADYEYLPKTRDGYYWGQGTQVTVSS | low polyreactivity
19 | QVQLVDSGGGLVQAGGSLRLSCAASGITFRRYAMGWYRQAPGKERELVASITRNGGITYYADSVKGRFTISRDNAKNTVYLQMNSLKPEDTAVYYCNAVFYYPYPADRRDYWGQGTQVTVSS | high polyreactivity
20 | QVQLVESGAGLVQAGGSLRLSCAASGRIFYWNAMGWYTQAPGKEREFVAAISWSGGSTYADSVKGRFTISRDNAKNTVYLQMNSLKPEDTAVYYCATRVSRSFRAYDYWGQGTQVTVSS | high polyreactivity
21 | QVQLEESGGGLVQAGGSLRLSCAASGRTFRINAMGLYRQAPGKERELVAAIRSRAGSTYYADSVKGRFTISRDNAKNTVYLQMNSLKPEDTAVYYCAAKLPFDVDYWGQGTQVTVSS | high polyreactivity
22 | QVQLVESGGGLVQAGGSLRLICSASGTTFPVYVMGRYRHAPGKERELVAAISRSGTSTYYADSVKGRFTISRDNAKNTVYLQMNSLKPEDTAVYYCAAQLYGHGEDYWGQGTQVTVSS | high polyreactivity

Row | Sequence | polyreactivity (PSR sort gate)
23 | QVQLVESGGGLVQAGGSLRLSCAASGRIFHYNAMGWYRQAPGKERELVAVITTIGGDTYYADSVKGRFTISRDNAKNTVYLQMNSLKPEDTAVYYCAARSRSWRQRYGDFDYWGQGTQVTVSS | low polyreactivity
24 | QVQLVESGGGLVQAGGSLRLSCAASGSTLYTYAMGWYRQAPGKERELVAAIRLSGGRTYYADSVKGRFTISRDNAQNTVYLQMNSLKPEDTAVYYCAVDWSYSRYDYWGQGTQVTVSS | high polyreactivity
25 | QVQLVESGGGLVQAGGSLRLSCAASGLTFDWYTMGWYRQAPGKERELVATINSGGSTDYADSVKGRFTISRDNAKNNVYLQMNSLKPEDTAVYYCNAEYGYSGVGDDYWGQGTQVTVSS | low polyreactivity
26 | QVQLVESGGGLVQAGGSLRLSCAASGSTFLTYDMGWYRQAPGKERELVAAISGGGSTNYADSVKGRFTISRDNAKNTFYLQMNSLKPVDTAVYYCAAKASGNFYYYWGQGTQVTVSS | high polyreactivity
27 | QVQLVESGGGLVQAGGSLRLSCAASGSTFGKYAMGWYRQAPGKERELVAAITRRTGSTYYADSVKGRFTISRDNAKNTVYLQMNSLKPVDTAVYYCAARLPQYRYDYWGQGTQVTVSS | high polyreactivity
28 | QVQLVESGGGLVQAGGSLRLSCSASGSTFWYYAMGWYRKAPGKERELVAAITRGASTNYADSVKGRFTISRDNAKNTVYLQMISLIPEDTAVYYCAAGPARWKGYYWGQGTQVTVSS | high polyreactivity
29 | QVQLVESGGGLVQAGGSLRLICAASGLTFHPYAMGWYRPAPGKERELVAAISSRGTSTYYADSVKGRFTISRDNAQNTVYLQMNCLKPEDTAVYYFAARHGPRAEAMYYWGQGTQVTVSS | high polyreactivity
30 | QVQLVESGGGLVQAGGILRLSCAASGFTFKANAMGWYRQAPGKERELVAAISRRGSSTYYADSVKGRFTISRDNAKNTVYLQMNSLKPEDTAVYYCNTKPRAGRTKLGYWGQGTQVTVSS | high polyreactivity
31 | QLQLVESGGGLVQAGGSLRLSCAASGRTFRLNGMGWYRQAPGKERELVAAITWSGGRTYYADSVKGRFTISRDNAKNTVYLQMNSLNPEDTAVYYCAAGKSSYGKPKYYYWGQGTQVTVSS | high polyreactivity
32 | QVQLVESGGGLVQGGGSLRLRCAASGRSFKWYAMVWYRQAPGKDRELVAGISRGAGRTYYADSEKGRFTISRDNAKNTVYLQMNSLKADDTAVYYCAAVPSYHSTSPFYYWGLGTQVTVSS | high polyreactivity
33 | QVQLVESGGGLVQAGGSLRLSCAASMGWYRQAPGKERELVAAITTRTGTTYYADSVKGRFTISRDNAKNTVYLQMNSLKPEDTAVYYCSKRGYYRYYYWGQGTQVTVSS | high polyreactivity
34 | QVQLVESGGGLVQAGGSLRLTCAASGNIFDLYAMGWYRQAPGTERELVASITSDGITYYADSVKGRFTISRDNAKNTVYLQMNSLKPEDSAVYYCAVVRSYRYLPRGDYWGQGTQVTVSS | low polyreactivity
35 | QVQLEESGGGIVQAGGSLRLSCAASGSIFGGYAMGWYRQAPGKEREFFAAISWTSGRTTYADSVKGRFTISRDYAKNTVYLQMNSLKPEDTAVYNCAKRYGIWYPSYADRGSDYRYGYWGQGTQVTVSS | high polyreactivity
36 | QVQLVESGGGLVQAGGSLRLSCAASGIIIGYYAMGWYRQAPGKERELVAAISSIGGSTYYADSVKGRFTISRDNAKNTVYLQMNSLKPEDTAVYYCAAKYYGRYYRYLGSSFDYWGQGTQVTVSS | high polyreactivity
37 | QVQLVESGGGLVQAGGSLRLSCAASGSTFIYYTMVWYRQAPGKERELVAAIPSSGGSTYYADSVKGRFTISRDNAKNTVYLQMNSLKPEDNAVYYCAADGTYIKFAKLYRSYDYWGQVTQVTVSS | low polyreactivity
38 | QEQLQESGGGLVQEGGSLRLSCAASGNISPPADMGWYRQAPGKERELVASIGTGGTTNYADSVKGRFTISRDNAKNTVYLQMNSLKPDDTAVYYCAAVRYEYNPYDYWGQGTQVTVSS | low polyreactivity
39 | QVQLVESGGGLVQAGGSLRLSSAASGSTFYYNTMGWSRQAPGKERELVAAISSSGGTTYYADSVKGRFTISRDNAKNTVYLQMNSLKPEDTAVYYCNVATIWYSYARGYGYWGQGTQVTVSS | high polyreactivity
40 | QVQLVESGGGLVQAGGSLRLSCAASGNTISYYAMGWYRQAPGKERELVAAISANGGSTYYADSVKGRFTISRDNAKNTVYLQMNSLKPEDTAVYYCNRRFLSRNQNEYDYWGQGTQVTVSS | high polyreactivity
41 | QVQLVESGGGLVQAGGCLRLSCAASGFIFSKNVMGWYRQAPGTERELVARITRSGGTTNYADSVKGRFTISRDNAKNTVYLQMNSLNPGDTAVYFCAARGYGYTSITWYDYWGQGTQVTVSS | high polyreactivity
42 | QVQLVESGGGLVQAGGSLPVSCAASGFTIVYYAKGWYRQAPGKERELVADISSEGSTYADSVKGRFTISRDNAKNTVSLQMNSLKPEDTAVYYCPAQPIYSYWRSSLYYYWGQGTQVTVSS | high polyreactivity
43 | QVQLVESGGGLVQAGGSLRLSCAASGITFTGNAMGWYRQAPGKERELVAAISNRGGSTYYADSVKGRFTISRDNAKNTVYLQMNSLKPEDTAVYYCRTSTPRRVSGNYWGQGTQVTVTS | high polyreactivity
